Measured values taken from publication PMC11946513, “Modulation of the substrate preference of a MYST acetyltransferase by a scaffold protein” (The Journal of Biological Chemistry, 2025).

Experiments:
[1] = target: full-length KAT6A (KAT6A^FL) (human) (UniProt Q92794)
[2] = target: KAT6A MYST domain (KAT6A 501-784) (human) (UniProt Q92794)
[3] = target: KAT6A^FL 4-protein complex (KAT6A^FL 4-plex) (UniProt Q92794)
[4] = target: KAT6A^FL-BRPF1 2-protein complex (KAT6A^FL 2-plex) (human) (UniProt Q92794)
Sequence of KAT6A^FL-BRPF1 2-protein complex (KAT6A^FL 2-plex) (human) (Q92794 whole entry, chain 1 of 2): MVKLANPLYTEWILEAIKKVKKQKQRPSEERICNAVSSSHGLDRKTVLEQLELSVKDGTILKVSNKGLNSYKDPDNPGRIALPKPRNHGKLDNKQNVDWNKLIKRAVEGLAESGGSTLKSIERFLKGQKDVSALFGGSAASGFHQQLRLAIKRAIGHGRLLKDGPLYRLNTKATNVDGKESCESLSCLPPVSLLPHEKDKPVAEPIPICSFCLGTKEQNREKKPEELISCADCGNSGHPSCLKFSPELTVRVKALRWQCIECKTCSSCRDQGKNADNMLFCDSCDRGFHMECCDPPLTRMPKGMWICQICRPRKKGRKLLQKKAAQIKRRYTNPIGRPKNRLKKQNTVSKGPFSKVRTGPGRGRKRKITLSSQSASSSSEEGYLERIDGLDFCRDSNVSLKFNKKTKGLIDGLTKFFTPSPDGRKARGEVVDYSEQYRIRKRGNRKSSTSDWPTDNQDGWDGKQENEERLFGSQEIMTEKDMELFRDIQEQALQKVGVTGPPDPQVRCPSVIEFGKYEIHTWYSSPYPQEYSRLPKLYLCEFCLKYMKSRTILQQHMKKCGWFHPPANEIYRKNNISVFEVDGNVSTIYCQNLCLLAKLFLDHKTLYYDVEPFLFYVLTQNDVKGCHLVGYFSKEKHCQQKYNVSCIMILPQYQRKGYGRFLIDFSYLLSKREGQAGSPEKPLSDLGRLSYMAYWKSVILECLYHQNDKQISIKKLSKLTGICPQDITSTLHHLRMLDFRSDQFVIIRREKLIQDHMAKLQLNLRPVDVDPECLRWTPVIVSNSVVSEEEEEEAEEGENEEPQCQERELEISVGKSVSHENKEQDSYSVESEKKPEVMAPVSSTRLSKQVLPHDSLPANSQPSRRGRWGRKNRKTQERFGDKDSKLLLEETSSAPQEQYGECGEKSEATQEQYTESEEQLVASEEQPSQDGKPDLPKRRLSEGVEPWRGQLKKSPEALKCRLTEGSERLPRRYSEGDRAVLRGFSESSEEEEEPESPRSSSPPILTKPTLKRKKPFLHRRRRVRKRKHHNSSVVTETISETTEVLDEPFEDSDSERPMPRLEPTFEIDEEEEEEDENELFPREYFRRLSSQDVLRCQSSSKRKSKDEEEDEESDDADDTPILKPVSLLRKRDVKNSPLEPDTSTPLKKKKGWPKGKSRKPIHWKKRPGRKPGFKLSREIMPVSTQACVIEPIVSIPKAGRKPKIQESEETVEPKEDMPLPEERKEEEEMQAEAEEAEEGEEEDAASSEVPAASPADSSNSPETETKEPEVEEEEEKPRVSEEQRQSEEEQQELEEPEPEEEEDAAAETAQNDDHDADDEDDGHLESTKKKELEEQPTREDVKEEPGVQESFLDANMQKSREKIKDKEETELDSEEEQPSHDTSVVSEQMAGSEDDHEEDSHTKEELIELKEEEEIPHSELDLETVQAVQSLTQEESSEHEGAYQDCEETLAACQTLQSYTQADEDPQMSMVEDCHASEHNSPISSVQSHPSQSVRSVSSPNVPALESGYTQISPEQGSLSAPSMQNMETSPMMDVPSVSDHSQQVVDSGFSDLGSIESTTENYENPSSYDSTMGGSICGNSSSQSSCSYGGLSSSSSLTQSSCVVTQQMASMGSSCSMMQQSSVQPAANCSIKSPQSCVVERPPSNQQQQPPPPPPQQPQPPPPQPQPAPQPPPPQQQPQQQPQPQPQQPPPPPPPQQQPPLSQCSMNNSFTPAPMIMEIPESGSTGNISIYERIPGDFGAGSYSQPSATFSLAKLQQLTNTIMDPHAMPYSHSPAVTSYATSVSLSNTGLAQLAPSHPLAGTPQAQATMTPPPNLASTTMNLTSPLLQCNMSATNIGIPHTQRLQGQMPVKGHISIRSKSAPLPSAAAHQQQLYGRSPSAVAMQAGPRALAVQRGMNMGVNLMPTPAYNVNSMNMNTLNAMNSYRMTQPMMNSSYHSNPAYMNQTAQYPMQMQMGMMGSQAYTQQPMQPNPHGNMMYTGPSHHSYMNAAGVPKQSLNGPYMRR
Sequence of KAT6A^FL-BRPF1 2-protein complex (KAT6A^FL 2-plex) (human) (P55201 whole entry, chain 2 of 2, further chain): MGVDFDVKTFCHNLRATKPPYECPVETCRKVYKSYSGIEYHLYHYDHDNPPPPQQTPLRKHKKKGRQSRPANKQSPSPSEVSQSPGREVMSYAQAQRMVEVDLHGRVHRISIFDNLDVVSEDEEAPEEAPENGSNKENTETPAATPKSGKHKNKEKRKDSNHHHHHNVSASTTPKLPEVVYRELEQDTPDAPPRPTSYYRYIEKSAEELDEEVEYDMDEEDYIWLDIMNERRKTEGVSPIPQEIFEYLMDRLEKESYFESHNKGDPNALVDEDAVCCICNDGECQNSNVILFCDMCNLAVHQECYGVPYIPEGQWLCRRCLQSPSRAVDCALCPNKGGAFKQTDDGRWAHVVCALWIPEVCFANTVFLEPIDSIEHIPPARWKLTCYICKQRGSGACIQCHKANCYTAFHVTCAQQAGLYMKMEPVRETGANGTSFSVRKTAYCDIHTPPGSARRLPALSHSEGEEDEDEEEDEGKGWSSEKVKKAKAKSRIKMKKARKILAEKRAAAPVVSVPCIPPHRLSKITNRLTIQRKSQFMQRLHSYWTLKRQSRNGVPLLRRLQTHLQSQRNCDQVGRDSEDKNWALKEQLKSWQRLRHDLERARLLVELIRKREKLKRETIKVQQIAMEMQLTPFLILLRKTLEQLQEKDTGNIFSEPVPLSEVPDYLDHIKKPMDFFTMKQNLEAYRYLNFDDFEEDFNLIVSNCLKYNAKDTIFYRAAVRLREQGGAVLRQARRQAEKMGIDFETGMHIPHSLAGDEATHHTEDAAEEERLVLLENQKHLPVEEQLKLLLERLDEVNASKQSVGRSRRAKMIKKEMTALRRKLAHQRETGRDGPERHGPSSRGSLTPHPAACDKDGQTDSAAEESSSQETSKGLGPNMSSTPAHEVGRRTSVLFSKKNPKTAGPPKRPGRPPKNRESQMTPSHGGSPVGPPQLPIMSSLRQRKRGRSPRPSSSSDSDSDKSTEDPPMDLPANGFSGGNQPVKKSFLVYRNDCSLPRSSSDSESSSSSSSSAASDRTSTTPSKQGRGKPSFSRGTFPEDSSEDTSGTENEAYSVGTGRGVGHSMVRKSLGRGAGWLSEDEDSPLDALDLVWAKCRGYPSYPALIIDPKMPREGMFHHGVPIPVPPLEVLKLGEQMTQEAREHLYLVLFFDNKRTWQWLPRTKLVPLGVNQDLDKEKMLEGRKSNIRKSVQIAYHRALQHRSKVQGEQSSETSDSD

Sequence of full-length KAT6A (KAT6A^FL) (human) (Q92794 whole entry, the tested form may be a part): as the sequence (Q92794 whole entry, chain 1 of 2) above
Sequence of KAT6A MYST domain (KAT6A 501-784) (human) (Q92794 501-784): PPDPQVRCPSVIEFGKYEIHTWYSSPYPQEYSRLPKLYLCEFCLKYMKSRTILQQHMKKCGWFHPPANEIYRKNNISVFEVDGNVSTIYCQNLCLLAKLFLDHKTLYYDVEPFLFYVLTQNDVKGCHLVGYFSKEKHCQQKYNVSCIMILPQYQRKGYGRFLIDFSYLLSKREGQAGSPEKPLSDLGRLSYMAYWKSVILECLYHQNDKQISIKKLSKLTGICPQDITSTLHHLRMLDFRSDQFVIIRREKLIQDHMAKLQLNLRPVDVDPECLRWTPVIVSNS
Sequence of KAT6A^FL 4-protein complex (KAT6A^FL 4-plex) (Q92794 whole entry, looked up, one chain of several): as the sequence (Q92794 whole entry, chain 1 of 2) above

| Substance | KM of steady-state acetylation of the peptide (CoA formation by MS; 20 μM AcCoA, 25 °C) [1] [µM] | KM of steady-state acetylation of the peptide (CoA formation by MS; 20 μM AcCoA, 25 °C) [2] [µM] | KM of steady-state acetylation of the peptide (CoA formation by MS; 20 μM AcCoA, 25 °C) [3] [µM] | KM of steady-state acetylation of the peptide (CoA formation by MS; 20 μM AcCoA, 25 °C) [4] [µM] |
| --- | --- | --- | --- | --- |
| H3 (1-21) (peptide) | 16 | 380 | – | – |
| H3.3 (15-36) (peptide) | 30 | 360 | 16 | 13 |
| H3.3 (1-43) (peptide) | 3.2 | 130 | – | – |
